# Experimental data taken from patent publication US20230340111A1 (published 2023).
# Residue numbers refer to the chain shown, from its start. Names may count otherwise.
# B1: 99mTc-labeled His6-tagged VHH A1 (VHH)
# VHH: DVQLVESGGGLVQPGGSLRLSCAASESIFSRNHMSWYRQAPGKQRELAAIITSDGNTNYPDSVKGRFTISRDNAKNTVYLQMNSLKPEDTAVYYCNTFGRSVAGFYDYWGQGTQVTVSS
# modifications: [99mTc(H2O)3(CO)3] at the His6-tail
# notes: also called 99mTc-A1; 99mTc-VHH A1
# B2: 99mTc-labeled His6-tagged VHH A4 (VHH)
# VHH: DVQLVESGGGLARAGGSLRLSCAASGRAFSSTYAMGWFRQAPGKEREFVADINWSEGSPMYIDSVKDRFTISRDNARNSLYLQMNSLKSEDTAVYYCAARRFGQGYEYWGQGTQVTVSS
# modifications: [99mTc(H2O)3(CO)3] at the His6-tail
# notes: also called 99mTc-A4
# B3: His6-tagged variant of VHH A3 (VHH)
# VHH: DVQLVESGGGLVQAGGSLRLSCGVSGNMFSMNLMGWYRQPPGKERDWVAVITKDGSTNYADSVKGRFTISRDNAKNTVSLQMNSLKPEDTAVYYCNVQDGSGWIRAWGWDWGQGTQVTVSS
# notes: Purified, unlabelled; also called A3 His6-tag
# B4: 99mTc-labeled His6-tagged VHH A3 (VHH)
# VHH: B3 VHH
# modifications: [99mTc(H2O)3(CO)3] at the His6-tail
# notes: also called 99mTc-A3
# B5: 99mTc-labeled His6-tagged VHH A5 (VHH)
# VHH: B3 VHH with M28I, D46E, V50L, A60E, V97A
# modifications: [99mTc(H2O)3(CO)3] at the His6-tail
# notes: also called 99mTc-A5
# B6: HA-tagged variant of VHH A2 (VHH)
# VHH: QVQLQESGGGLVQAGGSLRLSCAADEMKFSNYDLAWYRRAPGKQRELAAIITSGGSTNYPDSVKGRFTISRDNAKNTVYLEMNSLKPEDTAVYYCNALRPWPQFSDYWGQGTQVTVSS
# notes: Used as VHH-containing bacterial (periplasmic) extract in ELISA; also called A2 HA-tag
# B7: His6-tagged variant of VHH A2 (VHH)
# VHH: B6 VHH with Q1D, Q5V
# notes: Purified, unlabelled; also called A2 His6-tag
# B8: 99mTc-labeled His6-tagged VHH A2 (VHH)
# VHH: B6 VHH with Q1D, Q5V
# modifications: [99mTc(H2O)3(CO)3] at the His6-tail
# notes: also called 99mTc-A2; 99mTc-VHH A2
# B9: 131I-labeled untagged VHH A2 (VHH)
# VHH: B6 VHH with Q1D, Q5V
# modifications: [131I]SGMIB conjugated to lysine side-chain amine groups
# Key:
# [1] = target: T1, human FOLR1 expressed on SKOV-3 ovarian carcinoma cells (human, UniProt P15328 25-234); assay: saturation binding of 99mTc-labelled His6-tagged VHH on SKOV-3 cells (0-300 nM); non-specific binding by 100-fold unlabelled VHH
# T1 construct: Naturally expressed receptor on SKOV-3 cells; also called human FOLR1pos SKOV-3 cancer cells; human FOLR1-expressing cell line SKOV-3
# Method: After quality control (> 95%), human FOLR1^pos SKOV-3 cancer cells were incubated with serial dilutions with concentrations ranging from 0 to 300 nM of the different ^99mTc-labelled VHHs. A 100-fold excess of the corresponding unlabeled VHH was added in parallel to saturate the human FOLR1 receptors expressed on cancer cells, to assess non-specific binding.
# [2] = target: T2, human FOLR1 recombinant protein (extracellular domain of human folate receptor alpha) (human, UniProt P15328 25-233); assay: SPR dual injection on immobilized human FOLR1, 250 nM; competitor (1st VHH, saturating) A1; by the legend the value is of the 2nd VHH
# T2 construct: Bought recombinant protein (Sino Biological); also called hFOLR1; FR-alpha
# Method: (§1) Competitive binding characteristics of His₆-tagged VHHs were determined via surface plasmon resonance with a Biacore T200 instrument (GE Healthcare). Immobilization of human FOLR1 recombinant protein (Sino Biological) and regeneration were performed as described below for kinetic measurements.
# (§2) Table 8: Side-by-side comparison of His₆-tagged VHHs A1, A2, A3, A4, A5 for binding to human FOLR1 to identify competitive binding characteristics. Binding was measured in surface plasmon resonance with immobilized human FOLR1 recombinant protein as the ligand. After saturation of the ligand with VHH 1 an equimolar mixture of VHH 1 and VHH 2 was injected. Percentages express the loss in response level of VHH 2, relative to the response when VHH 2 was injected alone.
# [3] = target: T2, human FOLR1 recombinant protein …; assay: SPR (Biacore T200), single cycle kinetics, His6-tagged VHH immobilized on CM5, human FOLR1 as analyte, 1:1 fit
# Method: The kinetic parameters of antigen binding for purified VHHs A1, A2 and A3 were determined via surface plasmon resonance with a Biacore T200 instrument (GE Healthcare) using single cycle kinetics mode. While example 4d provides a first and preferred way of assessing the kinetic parameters of antigen binding for VHHs using surface plasmon resonance, this example provides an alternative setup for using surface plasmon resonance to assess the kinetic parameters of antigen binding, inverting the analyte and immobilized ligand. His₆-tagged VHH A1, A2 or A3 was immobilized in 10 mM sodium acetate, pH 5.5 on a CM5 chip (GE Healthcare) via amine coupling chemistry to 160 RU. The human FOLR1 recombinant protein (Sino Biological) was analyzed in a threefold serial dilution in HBS (38.5 nM-0.47 nM) with an analyte flow rate of 30 µl/min. The association phase took 180 s for every concentration and the dissociation phase 900 s. Regeneration was done by a single injection of 50 mM glycine-HCl, pH 2.5, 2 M MgCl2 for 30 s at 30 µl/min, followed by 120 s stabilization. Binding curves were fitted using a ‘1:1 (antigen:analyte)’ binding model in Biacore T200 evaluation software.
# [4] = target: T2, human FOLR1 recombinant protein …; assay: SPR dual injection on immobilized human FOLR1, 250 nM; competitor (1st VHH, saturating) A5; by the legend the value is of the 2nd VHH
# Method: as §1, §2
# [5] = target: T2, human FOLR1 recombinant protein …; assay: SPR dual injection on immobilized human FOLR1, 250 nM; competitor (1st VHH, saturating) A4; by the legend the value is of the 2nd VHH
# Method: as §1, §2
# [6] = target: T2, human FOLR1 recombinant protein …; assay: SPR (Biacore T200), human FOLR1 immobilized on CM5, His6-tagged VHH as analyte, 1:1 fit
# Method: The kinetic parameters of antigen binding by purified VHHs were determined via surface plasmon resonance with a Biacore T200 instrument (GE Healthcare). The human FOLR1 recombinant protein (Sino Biological) was immobilized in 10 mM sodium acetate, pH 5.5 on a CM5 chip (GE Healthcare) via amine coupling chemistry to 500 RU. His₆-tagged VHHs were analyzed in a twofold serial dilution in HBS (125 nM-0.488 nM for VHHs A4 and A5; 10 nM-0.039 nM for VHHs A1, A2 and A3) with an analyte flow rate of 30 µl/min. The association phase took 180 s (A4-A5) or 450 s (A1-A3) and the dissociation phase 600 s (A4-A5) or 900 s (A1-A3). Regeneration was done by a single injection of 50 mM glycine-HCl, pH 2.5, 2 M MgCl₂ for 30 s at 30 µl/min, followed by 120 s stabilization. Binding curves were fitted using a ‘1:1 (antigen:analyte)’ binding model in Biacore T200 evaluation software.
# [7] = target: T3, human folate receptor gamma (FOLR3), recombinant (human, UniProt P41439 23-245, limits assumed); assay: ELISA, coated recombinant protein, HA-tagged VHH in bacterial extract
# T3 construct: extracellular domain; Bought protein; also called human FOLR3
# Method: (§3) The day before, 0.1 µg recombinant protein at a concentration of 1 µg/mL in 100 mM NaHCO3, pH 8.2 was coated in a 96-well ELISA plate (Nunc MaxiSorp). Per VHH clone also a blank coated well was foreseen (only buffer). The wells were overcoated with protein-free T20 (PBS) blocking buffer (Pierce). After washing with PBS, pH7.4, 0.05% Tween, VHH-containing bacterial extract was added to every well. Binding of HA-tagged VHHs was detected by using mouse anti-HA.11 epitope tag (clone 16B12, Biolegend) as the primary Ab and goat anti-mouse IgG (whole molecule) alkaline phosphatase conjugate (Sigma-Aldrich) as the secondary Ab, with thorough washing with PBS, pH 7.4, 0.05% Tween in between. Signals were developed using phosphatase substrate (Sigma-Aldrich) in AP blot buffer (100 mM NaCl, 50 mM MgCl2, 100 mM Tris, pH 9.5). The absorbance was determined at 405 nm using an absorbance microplate reader (Molecular Devices). Per clone the ratio was determined between the absorbance in the antigen-coated well versus the well without antigen.
# [8] = target: T4, human folate receptor beta (FOLR2), extracellular domain, recombinant (human, UniProt P14207 17-228, limits assumed); assay: as above
# T4 construct: extracellular domain; Bought protein; also called human FOLR2
# Method: as §3
# [9] = target: human FOLR1 recombinant protein (extracellular domain of human folate receptor alpha) (human) (UniProt P15328); assay: ELISA; coated recombinant protein, HA-tagged VHH in bacterial extract, anti-HA detection; A405 antigen well / blank well
# [10] = target: T3, human folate receptor gamma (FOLR3), …; assay: as above
# Method: as §3
# [11] = target: T4, human folate receptor beta (FOLR2), …; assay: as above
# Method: as §3
# [12] = target: T2, human FOLR1 recombinant protein …; assay: SPR dual injection on immobilized human FOLR1, 250 nM; competitor (1st VHH, saturating) A3; by the legend the value is of the 2nd VHH
# Method: as §1, §2
# [13] = target: T1, human FOLR1 expressed on SKOV-3 ovarian …; assay: cellular retention on SKOV-3 cells: 10 nM 131I-VHH 1 h at 4 C, then up to 24 h at 37 C; membrane-bound plus internalized fraction
# Method: The in vitro cellular retention of the different His₆- and untagged ¹³¹I-labeled VHHs was assessed on the same cancer cells. In this particular case, human FOLR1^pos SKOV-3 cancer cells were incubated with 10 nM ¹³¹I-labelled VHHs for 1h at 4° C., after which the unbound fraction was collected. A 100-fold excess of the corresponding unlabeled VHH to assess non-specific binding. Next, the cells were incubated with fresh medium up to 24 h at 37° C., after which the dissociated fraction was collected. Afterwards, the cells were washed with 0.05 M glycine pH 2.8 to collect the membrane-bound fraction. Finally, cells were solubilized with 1 M NaOH at room temperature to collect the internalized fraction. The sum of the membrane-bound and internalized fractions corresponds to the total cell-associated fraction.
# [14] = target: T1, human FOLR1 expressed on SKOV-3 ovarian …; assay: saturation binding of 131I-labelled untagged VHH on SKOV-3 cells
# Method: In a first part, their in vitro behaviour was assessed by means of investigating their cellular binding and retention over time. The binding potential of the resulting radioconjugates was assessed to confirm that this was not affected by the introduction of ¹³¹I-SGMIB into the amino acid sequence of the different VHHs. To this, human FOLR1^pos SKOV-3 cancer cells were incubated with serial dilutions with concentrations ranging from 0 to 300 nM of the different ¹³¹I-labelled, His₆ tagged VHHs. A 100-fold excess of the corresponding unlabeled VHH was added in parallel to saturate the human FOLR1 receptors expressed on cancer cells, to assess non-specific binding.
# A1 and A2 parental untagged VHH’s and derivatives were radiolabeled with theranostic isotope ¹³¹I, as described in example 3, and subjected to saturation binding studies as described in example 6.
# T2 sequence (P15328 25-233): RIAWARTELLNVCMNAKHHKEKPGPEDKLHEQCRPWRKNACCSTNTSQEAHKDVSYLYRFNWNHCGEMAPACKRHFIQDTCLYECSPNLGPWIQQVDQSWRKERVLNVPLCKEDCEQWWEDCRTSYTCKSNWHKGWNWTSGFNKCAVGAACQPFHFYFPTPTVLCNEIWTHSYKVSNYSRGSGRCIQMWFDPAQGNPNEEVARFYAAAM
# T1 sequence (P15328 25-234 limits assumed): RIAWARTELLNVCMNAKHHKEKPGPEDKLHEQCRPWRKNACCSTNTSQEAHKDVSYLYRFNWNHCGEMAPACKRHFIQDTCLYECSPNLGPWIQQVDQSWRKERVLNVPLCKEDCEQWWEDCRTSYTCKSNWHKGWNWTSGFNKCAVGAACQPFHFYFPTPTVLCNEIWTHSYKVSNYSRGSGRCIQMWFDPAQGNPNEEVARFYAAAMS
# T4 sequence (P14207 17-228 limits assumed): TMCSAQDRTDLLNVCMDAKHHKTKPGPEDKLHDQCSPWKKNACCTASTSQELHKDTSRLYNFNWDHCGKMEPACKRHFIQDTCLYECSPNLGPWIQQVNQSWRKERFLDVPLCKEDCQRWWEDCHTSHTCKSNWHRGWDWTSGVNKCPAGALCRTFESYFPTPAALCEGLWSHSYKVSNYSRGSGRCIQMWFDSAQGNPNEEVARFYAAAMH
# T3 sequence (P41439 23-245 limits assumed): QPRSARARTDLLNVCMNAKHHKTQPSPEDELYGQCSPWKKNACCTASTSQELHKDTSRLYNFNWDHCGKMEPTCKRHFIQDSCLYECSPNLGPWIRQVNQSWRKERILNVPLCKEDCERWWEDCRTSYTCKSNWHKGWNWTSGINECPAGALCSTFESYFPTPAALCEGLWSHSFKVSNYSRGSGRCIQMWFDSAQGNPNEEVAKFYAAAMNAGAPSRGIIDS
# Sequence of human FOLR1 recombinant protein (extracellular domain of human folate receptor alpha) (human) (P15328 25-233): as the sequence (P15328 25-233) above
binder,measurement,setting,value
B1,EC50,[1],1 nM
B2,EC50,[1],3.8 nM
B3,loss in response level of VHH 2 relative to VHH 2 injected alone,[2],-97%
same,Kd,[3],1.9 nM
same,koff,[3],0.00063 s⁻¹
same,kon,[3],330000 M⁻¹ s⁻¹
same,loss in response level of VHH 2 relative to VHH 2 injected alone,[4],-89%
same,loss in response level of VHH 2 relative to VHH 2 injected alone,[5],-97%
same,Kd,[6],0.92 nM
same,koff,[6],0.0011 s⁻¹
same,kon,[6],1.2e+06 M⁻¹ s⁻¹
B4,EC50,[1],3.3 nM
B5,EC50,[1],28.6 nM
B6,binding result,[7],no binding
same,binding result,[8],no binding
same,signal-to-background ratio,[9],> 20
same,signal-to-background ratio,[10],~1
same,signal-to-background ratio,[11],~1
B7,loss in response level of VHH 2 relative to VHH 2 injected alone,[2],-96%
same,Kd,[3],1.5 nM
same,koff,[3],0.00068 s⁻¹
same,kon,[3],440000 M⁻¹ s⁻¹
same,loss in response level of VHH 2 relative to VHH 2 injected alone,[4],-86%
same,loss in response level of VHH 2 relative to VHH 2 injected alone,[12],-99%
same,loss in response level of VHH 2 relative to VHH 2 injected alone,[5],-96%
same,Kd,[6],0.24 nM
same,koff,[6],0.00033 s⁻¹
same,kon,[6],1.3e+06 M⁻¹ s⁻¹
B8,EC50,[1],1.1 nM
B9,cell-associated fraction of initial bound activity after 24 h,[13],~60%
same,EC50,[14],2.4 nM
